Measured values taken from US20060067886A1, “Gastrin receptor-avid peptide conjugates” (priority 1997, published 2006).

Assays:
[1] = Biodistribution of radiometal-DOTA-BBN conjugates in CF1 normal mice; settings: CF-1, mouse, in vivo, iv, total radioactivity; for tissue uptake dose at 1 h / dose excreted at 1 h: Avg % ID; for dose excreted at 1 h: Urine; for tissue uptake at 1 h: Avg % ID/gm
in vivo = settings: SCID, mouse, iv, 4 uCi, total radioactivity
Description: In vivo pharmacokinetic studies in human tumor bearing SCID mice. […] The xenograft models were produced by bilateral flank inoculation of 5×10^6 cells (PC-3 or MDA-MB-231 cells) per site. Four to six weeks post inoculation, palpable tumors were observed. At this point, the mice were injected with 4 μCi of the complex in 100/μL of isotonic saline via the tail vein. The mice were euthanized and tissues and organs were excised from the animals at selected times post-injection (p.i.), including 15 minutes, 30 minutes, 1 hour, 4 hours, 24 hours, 48 hours, and 72 hours p.i. Subsequently, the tissues and organs were weighed and counted in a NaI well counter and the percent injected dose (% ID) and % ID/g of each organ or tissue calculated.

[2] = Blood, 1 hour, Blocking (excess BBN)
[3] = Kidney, 1 hour, Blocking (excess BBN)
[4] = L. Intestine, 1 hour, Blocking (excess BBN)
[5] = Liver, 1 hour, Blocking (excess BBN)
[6] = Lung, 1 hour, Blocking (excess BBN)
[7] = Muscle, 1 hour, Blocking (excess BBN)
[8] = Pancreas, 1 hour post-injection
[9] = Pancreas, 1 hour, Blocking (excess BBN)
[10] = S. Intestine, 1 hour, Blocking (excess BBN)
[11] = Spleen, 1 hour, Blocking (excess BBN)
[12] = Stomach, 1 hour, Blocking (excess BBN)

## CSCC[C@H](NC(=O)[C@H](CC(C)C)NC(=O)[C@H](Cc1cnc[nH]1)NC(=O)CNC(=O)[C@@H](NC(=O)[C@H](C)NC(=O)[C@H](Cc1c[nH]c2ccccc12)NC(=O)[C@H](CCC(N)=O)NC(=O)CCCCCCCNC(=O)CN1CCN(CC(=O)O)CCN(CC(=O)O)CCN(CC(=O)O)CC1)C(C)C)C(N)=O [111In-DOTA-8-Aoc-BBN[7-14]NH2, metal not drawn]
[1]; [2]
  tissue uptake dose at 1 h: 0.98 ± 0.23 %ID
  tissue uptake at 1 h: 0.49 ± 0.15 %ID/g
[1]; Carcass, 1 hour, Blocking (excess BBN)
  tissue uptake dose at 1 h: 7.42 ± 1.35 %ID
[1]; Heart, 1 hour post-injection
  tissue uptake dose at 1 h: 0.01 %ID
[1]; Kidney, 1 hour post-injection
  tissue uptake dose at 1 h: 1.04 ± 0.12 %ID
[1]; [3]
  tissue uptake dose at 1 h: 0.92 ± 0.13 %ID
  tissue uptake at 1 h: 2.19 ± 0.47 %ID/g
[1]; L. Intestine, 1 hour post-injection
  tissue uptake dose at 1 h: 3.02 ± 0.33 %ID
[1]; [4]
  tissue uptake dose at 1 h: 0.15 ± 0.05 %ID
  tissue uptake at 1 h: 0.16 ± 0.06 %ID/g
[1]; [5]
  tissue uptake dose at 1 h: 0.87 ± 0.1 %ID
  tissue uptake at 1 h: 0.54 ± 0.13 %ID/g
[1]; [6]
  tissue uptake dose at 1 h: 0.17 ± 0.05 %ID
  tissue uptake at 1 h: 0.74 ± 0.17 %ID/g
[1]; Muscle, 1 hour post-injection
  tissue uptake dose at 1 h: 0.02 ± 0.01 %ID
  tissue uptake at 1 h: 0.12 ± 0.05 %ID/g
[1]; [7]
  tissue uptake dose at 1 h: 0.02 ± 0.01 %ID
  tissue uptake at 1 h: 0.11 ± 0.07 %ID/g
[1]; [8]
  tissue uptake dose at 1 h: 10.8 ± 0.78 %ID
  tissue uptake at 1 h: 27 ± 3.97 %ID/g
[1]; [9]
  tissue uptake dose at 1 h: 0.19 ± 0.03 %ID
  tissue uptake at 1 h: 0.43 ± 0.1 %ID/g
[1]; S. Intestine, 1 hour post-injection
  tissue uptake dose at 1 h: 6.58 ± 1.1 %ID
[1]; [10]
  tissue uptake dose at 1 h: 1.65 ± 0.19 %ID
  tissue uptake at 1 h: 0.95 ± 0.18 %ID/g
[1]; Spleen, 1 hour post-injection
  tissue uptake dose at 1 h: 0.17 ± 0.04 %ID
[1]; [11]
  tissue uptake dose at 1 h: 0.02 ± 0.03 %ID
  tissue uptake at 1 h: 0.15 ± 0.16 %ID/g
[1]; Stomach, 1 hour post-injection
  tissue uptake dose at 1 h: 0.5 ± 0.06 %ID
[1]; [12]
  tissue uptake dose at 1 h: 0.16 ± 0.12 %ID
  tissue uptake at 1 h: 0.32 ± 0.34 %ID/g
[1]; 1 hour post-injection
  dose excreted at 1 h: 71.6 ± 1.82%
[1]; 1 hour, Blocking (excess BBN)
  dose excreted at 1 h: 88.2 ± 1.79%
[1]; Heart, 1 hour, Blocking (excess BBN)
  tissue uptake at 1 h: 0.16 ± 0.06 %ID/g
In vivo; blood
  tissue uptake at 1 h: 0.35 ± 0.08 %ID/g
  tissue uptake at 4 h: 0.08 ± 0.1 %ID/g
  tissue uptake at 24 h: 0.02 ± 0.03 %ID/g
In vivo; heart
  tissue uptake at 1 h: 0.15 ± 0.11 %ID/g
  tissue uptake at 24 h: 0.08 ± 0.06 %ID/g
In vivo; kidney
  tissue uptake at 1 h: 3.29 ± 0.56 %ID/g
  tissue uptake at 4 h: 1.76 ± 0.15 %ID/g
  tissue uptake at 24 h: 0.98 ± 0.28 %ID/g
In vivo; large intestine
  tissue uptake at 1 h: 5.14 ± 0.42 %ID/g
  tissue uptake at 4 h: 5.58 ± 1.26 %ID/g
  tissue uptake at 24 h: 2.76 ± 0.49 %ID/g
In vivo; liver
  tissue uptake at 1 h: 0.31 ± 0.04 %ID/g
  tissue uptake at 4 h: 0.15 ± 0.09 %ID/g
  tissue uptake at 24 h: 0.07 ± 0.02 %ID/g
In vivo; lung
  tissue uptake at 1 h: 0.31 ± 0.09 %ID/g
  tissue uptake at 4 h: 0.06 ± 0.06 %ID/g
  tissue uptake at 24 h: 0.05 ± 0.05 %ID/g
In vivo; muscle
  tissue uptake at 1 h: 0.08 ± 0.05 %ID/g
  tissue uptake at 4 h: 0.06 ± 0.13 %ID/g
In vivo; pancreas
  tissue uptake at 1 h: 23.4 ± 4.99 %ID/g
  tissue uptake at 4 h: 17.9 ± 5 %ID/g
  tissue uptake at 24 h: 5.06 ± 0.77 %ID/g
In vivo; small intestine
  tissue uptake at 1 h: 5.15 ± 0.19 %ID/g
  tissue uptake at 24 h: 0.9 ± 0.14 %ID/g
In vivo; spleen
  tissue uptake at 1 h: 0.57 ± 0.1 %ID/g
  tissue uptake at 4 h: 0.48 ± 0.25 %ID/g
  tissue uptake at 24 h: 0.21 ± 0.07 %ID/g
In vivo; stomach
  tissue uptake at 4 h: 0.27 ± 0.08 %ID/g
  tissue uptake at 24 h: 0.33 ± 0.1 %ID/g
In vivo; tumor (Tumor 1)
  tissue uptake at 1 h: 0.91 ± 0.16 %ID/g
  tissue uptake at 4 h: 0.36 ± 0.13 %ID/g
  tissue uptake at 24 h: 0.22 ± 0.07 %ID/g
In vivo; tumor (Tumor 2)
  tissue uptake at 1 h: 0.74 ± 0.27 %ID/g
  tissue uptake at 4 h: 0.4 ± 0.23 %ID/g
  tissue uptake at 24 h: 0.24 ± 0.15 %ID/g
In vivo; tumor
  tissue uptake at 1 h: 0.83 ± 0.23 %ID/g
In vivo; urine
  dose excreted at 1 h: 72.1 ± 3.55%
  dose excreted at 4 h: 84.3 ± 2.09%
  dose excreted at 24 h: 83.8 ± 1.41%
